Experiment: yeast display, Sf9 membrane polyspecificity reagent, FACS + sequencing; frameworks hold sequencing errors
Procedure, shortened: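 Sorting gates, low and high (top ~1%), were placed on anti-HA fluorescence to track expression and on streptavidin fluorescence to track reagent binding. A clone's polyreactivity label is taken from the gate it came out of. The reagent was 10% biotinylated, detergent-solubilized Sf9 membrane, applied for 1 hour at 4 °C to galactose-induced yeast display cells.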

Row | Sequence | polyreactivity (PSR sort gate)
1 | QVQLVESGGGLVQAGGSLRLSCAASGITFYRYTMGWYRQAPGKERELVAAITWSGGSTYYADSVKGRFTISRDNAKNTVYLQMNSLKPEDTAVYYCAVYLPYSQRYVHYYYWGQGTQVTVSS | high polyreactivity
2 | QVQLVESGGGLVQAGGSLRLSCAASGITFYVYAMGWSRQAPGKEREFVAAISTRDGTTYAYSVKGRFTISRDNAKNTVYLQMNSLKPEDTAVYYCAAAYYYDGQQGDFDYWGQGSQVTVSS | low polyreactivity
3 | QVQLVESGGGLVQAGGSLRLSCAASGITFYVYTMGWYRQAPGKERELVAAINGSGGSTNYADSVKGRFPISRDNAKNTVYLQMNSLKPDDTAVYYCAADWSLSLYDYWGQGTQVSVSS | low polyreactivity
4 | QVQLVESGGGLVQAGGSLRLSCAASGITFYWYTMGLYRQAPGKERELVAAISSRGSSTRYADSVKGRFTISRDNAKNTVYLQMNSLKPEDTAVYYCAADDLSDGYYDEAYEDNYWGQGTQVTVSS | low polyreactivity
5 | QVQLVESGGGLVQAGGSLRLSCAASGITFYWYTMGWYRQAPGKERELVADIDGDGGSTYYAVSVKGRFTISRDNAKNTVYLLMNSVKPEDTGVYFCAAQVWPWGYDYWGQGTQVTVSS | high polyreactivity
6 | QVQLVESGGGLVQAGGSLRLSCAASGITFYYNAMGWYRQAPGKERELVAAISDGSSTNYADSVKGRFTISRDTAKNTVYLQMNSLKPEDTAVYYCNADLVLFPLTWPYYYWGQGTQVTVSS | low polyreactivity
7 | QVQLVESGGGLVQAGGSLRLSCAASGITFYYNDMGWYRQAPGKERELVAAISSGGTTNYADSVKGRFTISRDNAKNTVYLQMNSLKPEDTAVYYCATGYAEPEWYPFVSDYDYWGQGTQVTVSS | low polyreactivity
8 | QVQLVESGGGLVQAGGSLRLSCAASGITFYYYAMGWYRQAPGKLRELVARINSGGSTNYADSVKGRFTISRDNAKNTVYLQMNSLKPEDTAVYYCNAKFRFGTYKTPYDYWGQGTQVTVSS | low polyreactivity
9 | QVQLVESGGGLVQAGGSLRLSCAASGITFYYYAMGWYRQEPGKERELVAAINWSGTSTYYADSVKGRFTISRDNAKNTVYLQMNSLKPEDTAVYYCNAERGRSFWWAYDYWGQGTQVTVSS | low polyreactivity
10 | QVQLVESGGGLVQAGGSLRLSCAASGITFYYYGMGWYRQATGKERELVAAISTGGNTNYADSVKGRFTISRDNAKNTVYLQMNSLKPEDTAVYYCAASFASKYEYWGQGTQVTVSS | high polyreactivity
11 | QVQLVESGGGLVQAGGSLRLSCAASGITFYYYVMGWYRQAPGKERELVAAIDSGDSTYYADSVKGRFTISRDNAKNTVYLQMNSLKPEDTAVYYCAVDYEADNELNGPDQEYGRDSWGQGTQVTVSS | low polyreactivity
12 | QVQLVESGGGLVQAGGSLRLSCAASGITIRPYTMGWYRQAPGKERELVARISRRGGSTYYADSVKGRFTISRDNAKNTVYLQMNSLKPEDTAVYYCATRSRAHISPYDYWGQGTQVTVSS | high polyreactivity
13 | QVQLVESGGGLVQAGGSLRLSCAASGITISGYAMGWYRQAPGKERELVAAISRRGGSTYYADSVKGRFTISRDNAKNTVYLQMNSLKPEDTAVYYCARYPSRNYNYWGQGTQVTVSS | high polyreactivity
14 | QVQLVESGGGLVQAGGSLRLSCAASGITIVNYVMGWYRQAPGKERELVAAISIGGGTYYADSVKGRFTISRDNAKNTVYLQMNSLKPEDTAVYYCNASYGGLSFYIGVYVTGYYYWGQGTQVTVSS | low polyreactivity
15 | QVQLVESGGGLVQAGGSLRLSCAASGITLAYNAMGLYRQAPGTEREFVAAIDVCGGRTYYADSVKGRFTISRDNAKNTVYLQMNSLKPEDTAVYYCAAADIIDHSFPYDYWGQGTQVTVSS | low polyreactivity
16 | QVQLVESGGGLVQAGGSLRLSCAASGITLFYYAMGWYRQAPGKERELVAVISASGGSTYYADSVKGRFTISRDNAKNTVYIQMNSLKPEDTAVYYCAAVAYWRSSSWYYYWGQGTQVTVSS | high polyreactivity

Row | Sequence | polyreactivity (PSR sort gate)
17 | QVQLVESGGGLVQAGGSLRLSCAASGITLGRYAMGWYRQAPGQERELVAAISSWSGGSTTYADSVKGRFTISRDNAKNTVYLQMNSLKPEDTAVYYCNARRYYGRYYLGHSDYDYWGQGTQVTVSS | high polyreactivity
18 | QVQLVESGGGLVQAGGSLRLSCAASGITLGYYAMGWYRQAPGKERELVAAISYSSGSTYYADSVKGRFTIARDTAKNTVYLQMNSLKPEDTAVYYCAKYVTYYLPTYSPSGKHDYWGQVTQVTVSS | low polyreactivity
19 | QVQLVESGGGLVQAGGSLRLSCAASGITLINYAMGWYRQAPGKERELVAAISTSGSSTYYADSVKGRFTISRDNAKNTVYLQMNSLKPEDTAVYYCAAELDVYSLFGYWGQGTQVTVSS | low polyreactivity
20 | QVQLVESGGGLVQAGGSLRLSCAASGITLLYNAMGWYRQAPGKERELVAGITGRGGSTYYADSVKGRFTISRDNAKNTVSLQMNSLKPEDNAVYYCAATTDYRYVGRIVIRDDHWGQGTQVTVSS | low polyreactivity
21 | QVQLVESGGGLVQAGGSLRLSCAASGITLLYYAMGWYRQAPGKERELVAAISRRGGSTYYADSVKGRFTISRDNAKNTVYLQMNSLKPEDTAVYYCAAYSPYGGYHYLYDYWGQGTQVTVSS | high polyreactivity
22 | QVQLVESGGGLVQAGGSLRLSCAASGITLNRNAMGWYKQAPGKERELVARISRRGGTTYYADSVKGRFTISRDNAKNTVYLQLNSLKPEDSAVYYCAKVRRRWGYPSYSYPYGYWGQGTQVTVSS | high polyreactivity
23 | QVQLVESGGGLVQAGGSLRLSCAASGITLQFYAIGWYRQAPGKERELVAAISISGGRTYYADSVKGRFTISRDNAKNTVYLQMNSLKPEDTAVYYCAAYLQRAYRYGYWGQGTQVTVSS | high polyreactivity
24 | QVQLVESGGGLVQAGGSLRLSCAASGITLRRYAMGWYRQAPGKDRELVDVISVSGGRTHYADSVKGRFTISRDNAKNSVYLQMNSLNPEDTAVYYGAAHFSYRYYTDEVGYWGQGTQVTVSS | high polyreactivity
25 | QVQLVESGGGLVQAGGSLRLSCAASGITLSANAMGWYRQAPGKERELVATITWSGGSTYYADSVKGRFTISRDNAKNTVYLQMNSLKPEDTAVYYCNARSYDEYPYYSYNYWGQGTQVTVSS | low polyreactivity
26 | QVQLVESGGGLVQAGGSLRLSCAASGITLSWYAMGWSRQAPGKERELVAGISGRGGRTYYADSVKGRFTISRDNAKNTVYLQMNSLKPEDTAVYYCAADCPGYRSYDYWGQGTQVTVSS | high polyreactivity
27 | QVQLVESGGGLVQAGGSLRLSCAASGITLTIYVMGWYRQAPGKEREFVAAISKSGGSTYYADSVKGRFTISRDNAKNTVYLQMNSLKPEDTAVYYCAADVILYDFADYYVIYDYWGQGTQVTVSS | high polyreactivity
28 | QVQLVESGGGLVQAGGSLRLSCAASGITLTKNAMGWYSQAPGKERELVAGITRGSRTNYADSVKGRFTISRDNAKNTVYLQMNSLKPEDTAVYYCAASYWPYRGPVGGSKMYYWGQGTQVTVSS | high polyreactivity
29 | QVQLVESGGGLVQAGGSLRLSCAASGITLYANAMGWYREAPGKERELVAVISKGSGSTYYPDSVKGRFTISRDNAKNTVYLQMNSLKPEDTAVYYCAAGRKGSMYYWGQGTQVTVSS | high polyreactivity
30 | QVQLVESGGGLVQAGGSLRLSCAASGITLYFYARGWYRQAPGKERELVAAISRGGRTYYADSVKGRFTISRDNAKNTVYLQMNSLKPEDTAVYDCAARYTSEYSAFDYWGQGTQVTVSS | low polyreactivity
31 | QVQLVESGGGLVQAGGSLRLSCAASGITLYQYAMGWYRQAPGKERELVAAISWNGGTTYYADSVKGRFTISRDNAKNNVYLQMNSLKPEDTAVYYCAADGYPYGGPSYYYWGQGTQVTVSS | high polyreactivity
